Consider 1 substance from publication PMC11429718.

One may read the stoichiometry N as a count of units in the complex or per binding partner.

The target of test [1] is 329 SOSIP.v8.2 Env trimer (HIV-1 clade C (isolate 329.14.B1)). Nature of the test: negative-stain electron microscopy.
Test [2] shares this target. Nature of the test: native gel or EMSA.

With 329 SOSIP.v8.2 Env trimer (complex), the stoichiometry N in test [1] and in test [2] was 3 each time.
